The data set has as its system O=C(Cc1cccs1)N[C@@H]1C(=O)N2C(C(=O)O)=C(/C=C/c3ccc([N+](=O)[O-])cc3[N+](=O)[O-])CS[C@H]12. Briefly: purified protein. The data set is classed as biochemical, Acinetobacter baumannii.

The term Km denotes the substrate concentration at which the rate is half of its maximum. Turning to “ADC-7 β-lactamase (Acinetobacter-derived cephalosporinase) (Acinetobacter baumannii)”, the Km is 21.2 µM.

The record behind these values is article PMC4263437.
